From publication doi:10.1101/2023.06.13.544862 (bioRxiv, 2023)
One block for each binder: values may come before it. Ends that are not written are not given here. Me3 = trimethyl-lysine; Me2 = dimethyl-lysine

How the values were obtained:
[1] = target: JMJD3 JmjC domain labelled for microscale thermophoresis (UniProt O15054 1339-1502, labeled with Protein Labeling kit RED-NHS); test: MST
[2] = target: GST-tagged EED, wild type (human, UniProt O75530 1-441); test: pull-down
GST-tagged EED, wild type, sequence (O75530 whole entry): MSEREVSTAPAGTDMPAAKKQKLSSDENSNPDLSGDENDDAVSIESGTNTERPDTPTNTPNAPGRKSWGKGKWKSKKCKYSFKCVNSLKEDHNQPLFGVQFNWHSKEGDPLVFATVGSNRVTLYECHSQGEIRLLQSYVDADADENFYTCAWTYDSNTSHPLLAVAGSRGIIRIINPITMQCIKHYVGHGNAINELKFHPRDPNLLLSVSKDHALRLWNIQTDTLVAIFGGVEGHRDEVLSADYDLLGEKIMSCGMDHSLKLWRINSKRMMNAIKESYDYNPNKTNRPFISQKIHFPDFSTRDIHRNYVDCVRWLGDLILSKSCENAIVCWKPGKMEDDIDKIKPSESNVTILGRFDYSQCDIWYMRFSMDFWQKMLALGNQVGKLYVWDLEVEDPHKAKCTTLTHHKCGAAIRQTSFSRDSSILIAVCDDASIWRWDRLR

JMJD3 JmjC domain labelled for microscale thermophoresis, sequence (O15054 1339-1502): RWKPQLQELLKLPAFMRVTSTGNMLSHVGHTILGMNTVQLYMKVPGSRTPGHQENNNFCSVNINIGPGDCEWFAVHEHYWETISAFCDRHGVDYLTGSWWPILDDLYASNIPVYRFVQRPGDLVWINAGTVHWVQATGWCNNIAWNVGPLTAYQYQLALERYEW

Kd [1]: 347 ± 224 µM
Binder: NARRK(Me)AAP (peptide, UniProt Q9Y3C1 25-32, looked up, also: biotin) [NOP16 aa 25-32 peptide, mono-methylated K29]

Kd [1]: 306 ± 101 µM
Binder: NARRK(Me2)AAP (peptide, UniProt Q9Y3C1 25-32, looked up, also: biotin) [NOP16 aa 25-32 peptide, di-methylated K29]

Kd [1]: 32.1 ± 27.4 µM
Binder: NARRK(Me3)AAP (peptide, UniProt Q9Y3C1 25-32, looked up, also: biotin) [NOP16 aa 25-32 peptide, tri-methylated K29]

Kd [1]: 103 ± 65.2 µM
Binder: NARRKAAP (peptide, UniProt Q9Y3C1 25-32, looked up, also: biotin) [NOP16 aa 25-32 peptide, unmethylated K29]

binding result [2]: binds
B1: 6xHis-tagged NOP16 (natural protein, human, UniProt Q9Y3C1 1-178, looked up)
chain: MPKAKGKTRRQKFGYSVNRKRLNRNARRKAAPRIECSHIRHAWDHAKSVRQNLAEMGLAVDPNRAVPLRKRKVKAMEVDIEERPKELVRKPYVLNDLEAEASLPEKKGNTLSRDLIDYVRYMVENHGEDYKAMARDEKNYYQDTPKQIRSKINVYKRFYPAEWQDFLDSLQKRKMEVE
